In PMC2610409:

Biological target: RAD18-CFP (human) (UniProt Q9NS91)
Assay: FRET or BRET

Chain of UniProt Q9NS91 (Q9NS91 whole entry): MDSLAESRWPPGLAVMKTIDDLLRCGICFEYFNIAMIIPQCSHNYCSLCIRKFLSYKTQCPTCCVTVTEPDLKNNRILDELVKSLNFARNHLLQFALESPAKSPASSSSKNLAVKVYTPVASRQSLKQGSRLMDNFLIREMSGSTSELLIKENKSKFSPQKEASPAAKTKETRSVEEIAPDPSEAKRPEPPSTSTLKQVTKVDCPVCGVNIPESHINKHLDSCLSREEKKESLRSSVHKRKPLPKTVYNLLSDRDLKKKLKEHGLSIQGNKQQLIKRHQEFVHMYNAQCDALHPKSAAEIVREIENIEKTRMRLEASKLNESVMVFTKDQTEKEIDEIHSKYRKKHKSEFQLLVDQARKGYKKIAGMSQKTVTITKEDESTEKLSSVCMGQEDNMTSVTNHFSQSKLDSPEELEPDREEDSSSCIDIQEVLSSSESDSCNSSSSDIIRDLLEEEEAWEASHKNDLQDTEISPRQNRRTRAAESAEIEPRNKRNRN

FRET efficiency: 72%
Substance: RAD6A-YFP (from UniProt P49459 1-152) (natural protein)
